Legend:
[1] = test system: BMS human breast cancer cells; experiment: Haptotactic tumor cell migration toward fibrinogen (transwell); format: cell-based; conditions: 200 μM peptide, 16 hrs at 37° C.
Experimental: (§1) FIGS. 3A, 3B, 3C, 3D, 3E. scFv Bc-12 and Bc-15 inhibit αvβ3 mediated adhesive breast cancer cell functions. (A) Adhesion of BMS human breast cancer cells to fibrinogen (Fg), vitronectin (VN) or type I collagen (Col I) in the absence or presence of 3 μM Bc-12, Bc-15 or their RGE mutants Mut-12, Mut-15, compared to 200 μM GRGDSPK peptide (SEQ ID NO: 11). Protein coating concentrations: 10 μg/ml (VN, Col I) or 20 μg/ml (Fg). Adhesion time: 30 min at 37° C. (B) Effect of scFvs on haptotactic BMS cell migration toward a fibrinogen substrate (16 hrs at 37° C. in transwell chambers with or without 2 μM Bc-12, Bc-15 or their RGE mutants Mut-12 or Mut-15, compared to 200 μM GRGDSPK peptide) (SEQ ID NO: 11). (C) Effect of scFvs on breast cancer cell arrest during blood flow. Metastatic BMS cells, labeled with hydroethidine, were suspended in human blood (anticoagulated with 50 nM PPACK) and perfused over a collagen I matrix at a venous wall shear rate of 50 s^−1. Under these conditions, breast cancer cells arrest by αvβ3 mediated binding to adherent, thrombus forming platelets. Tumor cell adhesion was quantified by image acquisition at 30 predefined positions during blood flow. Left: representative images of platelet signal (thrombi, green fluorescence) and tumor cell signal (red fluorescence) at identical x,y positions. Right: Number of arrested tumor cells in the presence of 3 μM non-function blocking anti αv scFv Bc-20 or function blocking anti αvβ3 scFvs Bc-12 or Bc-15. (D) scFv Bc-15 is internalized by human breast cancer cells and reduces cell proliferation. Left: confocal images of BMS cells incubated for 4 hrs with FITC-Bc-15 at 4° C. (binding) versus 37° C. (allowing internalization). Right: Phase contrast images of BMS cell cultures 4 days after seeding in the presence of 2 μM RGE containing scFv Mut-15, or RGD containing Bc-15. […]
Cell adhesion and migration. Tumor cell adhesion under stationary conditions was analyzed as detailed earlier (19). […] Haptotactic tumor cell migration toward fibrinogen was analyzed in transwell chambers as detailed earlier. […]

[2] = test system: BMS human breast cancer cells; experiment: Tumor cell adhesion under stationary conditions; format: cell-based; conditions: 200 μM peptide, 30 min at 37° C.
Experimental: FIGS. 3A, 3B, 3C, 3D, 3E. scFv Bc-12 and Bc-15 inhibit αvβ3 mediated adhesive breast cancer cell functions. (A) Adhesion of BMS human breast cancer cells to fibrinogen (Fg), vitronectin (VN) or type I collagen (Col I) in the absence or presence of 3 μM Bc-12, Bc-15 or their RGE mutants Mut-12, Mut-15, compared to 200 μM GRGDSPK peptide (SEQ ID NO: 11). Protein coating concentrations: 10 μg/ml (VN, Col I) or 20 μg/ml (Fg). Adhesion time: 30 min at 37° C. (B) Effect of scFvs on haptotactic BMS cell migration toward a fibrinogen substrate (16 hrs at 37° C. in transwell chambers with or without 2 μM Bc-12, Bc-15 or their RGE mutants Mut-12 or Mut-15, compared to 200 μM GRGDSPK peptide) (SEQ ID NO: 11). (C) Effect of scFvs on breast cancer cell arrest during blood flow. Metastatic BMS cells, labeled with hydroethidine, were suspended in human blood (anticoagulated with 50 nM PPACK) and perfused over a collagen I matrix at a venous wall shear rate of 50 s^−1. Under these conditions, breast cancer cells arrest by αvβ3 mediated binding to adherent, thrombus forming platelets. Tumor cell adhesion was quantified by image acquisition at 30 predefined positions during blood flow. Left: representative images of platelet signal (thrombi, green fluorescence) and tumor cell signal (red fluorescence) at identical x,y positions. Right: Number of arrested tumor cells in the presence of 3 μM non-function blocking anti αv scFv Bc-20 or function blocking anti αvβ3 scFvs Bc-12 or Bc-15. (D) scFv Bc-15 is internalized by human breast cancer cells and reduces cell proliferation. Left: confocal images of BMS cells incubated for 4 hrs with FITC-Bc-15 at 4° C. (binding) versus 37° C. (allowing internalization). Right: Phase contrast images of BMS cell cultures 4 days after seeding in the presence of 2 μM RGE containing scFv Mut-15, or RGD containing Bc-15. (E) Effect of scFv Bc-12 on the viability of matrix deprived BMS breast cancer cells in ultra-low-adhesion plates in the presence or absence of 3.7 μM scFv, or 14.36 μM camptothecin as apoptosis inducing control. Measurement of apoptosis was based on cytoplasmic histone-associated DNA fragments after 20 hrs.
Cell adhesion and migration. Tumor cell adhesion under stationary conditions was analyzed as detailed earlier (19). Adhesion buffer was Hanks balanced salt solution (HBSS) pH 7.4, 0.5% BSA, 1 mM MgCl2, 0.2 mM MnCl2. For inhibition, cells were incubated for 5 min at RT either with 3 μM scFv or 200 μM GRGDSPK (SEQ ID NO: 11) peptide, then plated in the presence of inhibitor and allowed to attach for 30 min at 37° C. Haptotactic tumor cell migration toward fibrinogen was analyzed in transwell chambers as detailed earlier. Rolli, M., et al., Proc. Natl. Acad. Sci. U.S.A 100: 9482-9487, 2003. […]

BMS breast cancer cells = experiment: Tumor cell arrest during blood flow; format: cell-based; conditions: 3 μM scFv, human blood, collagen I matrix, shear rate 50 s^−1
Experimental: as §1, with “positions.” for “positions. Right: Number of arrested tumor cells in the presence of 3 μM non-function blocking anti αv scFv Bc-20 or function blocking anti αvβ3 scFvs Bc-12 or Bc-15. (D) scFv Bc-15 is internalized by human breast cancer cells and reduces cell proliferation. Left: confocal images of BMS cells incubated for 4 hrs with FITC-Bc-15 at 4° C. (binding) versus 37° C. (allowing internalization). Right: Phase contrast images of BMS cell cultures 4 days after seeding in the presence of 2 μM RGE containing scFv Mut-15, or RGD containing Bc-15.”
Tumor cell arrest during bloodflow. Breast cancer cell arrest during blood flow and interaction with platelets was measured as described. […] Adhesive events and cell interactions were visualized and recorded by fluorescence video microscopy and quantified by image acquisition at 30 predefined positions followed by computerized image analysis (MetaMorph, Universal Imaging). Tumor cells were stained with hydroethidine (red fluorescence) (20 μg/ml, 30 min, 37° C.), washed, and mixed with blood containing 10 μM mepacrine (green fluorescence). Blood cells, tumor cells, and platelets acquired green fluorescence and were visualized at 488/515 nm (excitation/emission). Tumor cells were identified by their unique red fluorescence at 543/590 nm. […]

integrin αvβ3 = experiment: Flow cytometry, scFv binding to human tumor cell panel
Experimental: FIGS. 1A, 1B, 1C. Patient derived scFvs Bc-12 and Bc-15 recognize tumor cell integrin αvβ3 in a cation and activation dependent manner. Flow cytometric analyses in TBS with or without 1 mM Ca^2+, 1 mM Mg^2+, or 0.2 mM Mn^2+ as indicated. Binding of soluble scFv detected after incubation with anti-Flag M2 murine mAb followed by FITC-anti mouse F(ab′)2. (A) scFv binding to human melanoma cells (M21: αvβ3 plus other αv integrins) (M21-LIIb: αIIbβ3, no αv integrins) or lung adenocarcinoma cells (UCLA-P3: αv integrins, no β3 integrin). (B) scFv binding to M21 melanoma cells. (C) scFv binding to variants of MDA-MB 435 human breast cancer cells that lack (β^3−) or express αvβ3 either in a non-activated (β3WT, ParentCo) or activated form (β3D723R, Bone, Lung, and BMS metastatic cancer cells isolated from breast cancer patient blood).
Flow cytometry. scFv binding to human tumor cells was analyzed by flow cytometry, initially with cloned scFv phage and then with purified scFv protein. Per sample, 2×10^5 tumor cells were blocked with goat serum and incubated either with scFv phage (2-5×10^10) (1 h at RT) followed by mouse anti-M13 mAb (Serotec) (30 min on ice) and goat FITC-anti mouse (Pierce) (30 min on ice), or with purified scFv (1.25 to 40 μg/ml, routinely 10 to 15 μg/ml) (45 min on ice), followed by mouse anti-FLAG mAb M2 (Sigma) (30 min on ice) and goat FITC-anti mouse. Binding/washing buffer was TBS with or without divalent cations (1 mM Ca^2+, 1 mM Mg^2+, 0.2 mM Mn^2+). Alternatively, tumor cells were washed in 10 ml of plasma (prepared freshly from human blood anticoagulated with 50 nM D-Phe-D-Pro-D-arginyl chloromethyl ketone, PPACK, Felding-Habermann et al., J. Biol. Chem. 271: 5892-5900, 1996), resuspended in plasma and then incubated sequentially, without washing, with purified scFv (45 min on ice), followed by anti-FLAG M2 (30 min on ice) and FITC-anti mouse (30 min on ice). All samples were counter stained with propidium iodide (PI) and analyzed on a Becton-Dickinson FACScan, with live gate set to exclude PI positive cells.
To generate therapeutic reagents that specifically react with activated αvβ3, a phage display library of single chain antibody fragments (scFv) was exploited. This library was derived from cancer patient blood lymphocyte cDNA libraries and allowed us to test the hypothesis that the expressed immune repertoire contains antibodies that recognize integrin αvβ3, and distinguish between its activated and non-activated forms. Mao et al., Proc. Natl. Acad. Sci. U.S.A 96: 6953-6958, 1999. A subtractive panning approach was designed based on variants of MDA-MB 435 human breast cancer cells. […] Apparently, these cells are selected during metastasis, as variant cells isolated from lung and bone metastases in immune deficient mice express constitutively activated αvβ3. To establish a cell population that uniformly expresses non-activated αvβ3, MDA-MB 435 parental cells were cloned by limiting dilution, and clones tested for αvβ3 functionality. […] A cell line, MDA-MB 435 Lung-Lung, was established which expressed αvβ3 in a constitutively activated form. This variant stems from a lung metastase of an immune deficient mouse whose mammary fat pad had been injected with parental MDA-MB 435 cells. Felding-Habermann et al., Proc. Natl. Acad. Sci. U.S.A 98: 1853-1858, 2001; Rolli et al., Proc. Natl. Acad. Sci. U.S.A 100: 9482-9487, 2003. To enrich for the ability to colonize the lung from the blood stream, the Lung variant was subsequently injected intravenously, and tumor cells cultured 3 weeks later from the excised lung. Parent Combo cells were used to subtract the scFv phage library to eliminate antibodies against antigens shared by the MDA-MB 435 cell variants. […]

human melanoma cells = conditions: mouse model; cited from earlier work

Molecule: GRGDSPK [a fibronectin derived peptide, reference compound]
- fibrinogen directed migration [1]: This effect was similar to that seen with 200 μM GRGDSPK
- adhesion to immobilized fibrinogen [2]: extent of inhibition by 3 μM scFv was similar to that observed with 200 μM GRGDSPK

B1: Bc-20: non-RGD containing, non-function blocking anti αv scFv (protein)
scFv: MAQVQLVQSGGGLVQPGGSLRLSCAASGFTFSSYWMSWVRQAPGKGLEWVANIKQDGSEKYYVDSVKGRFTISRDNAKNSLYLQMNSLRAEDTAVYYCARDGGFAGWAFDIWGQGTTVTVSSGGGGSGGGGSGGGGSDIQMTQSPSALSASVGDRVTITCRASQGLDNYLAWYQLQPGKAPKLLIYDAFTLQSGVPSRFSGGGSGTDFTLTISSLQPEDFATYFCQQLQSYPLTFGGGTKVEIKRGLGGLVDYKDDD
- breast cancer cell arrest during blood flow (BMS breast cancer cells): no effect
- reactivity with human tumor cells that express or lack αvβ3 (integrin αvβ3; M21, M21-LIIb, UCLA-P3 cells, flow cytometry): reacted with αv positive cells, regardless of the associated β subunit
- cation requirement of binding (integrin αvβ3; TBS with or without divalent cations): did not require divalent metal cations

B2: LM609: function blocking antibody against integrin αvβ3 (antibody, V domains shown)
VH: EVQLEESGGGLVKPGGSLKLSCAASGFAFSSYDMSWVRQIPEKRLEWVAKVSSGGGSTYYLDTVQGRFTISRDNAKNTLYLQMSSLNSEDTAMYYCARHNYGSFAYWGQGTLVTVSA
VL: ELVMTQTPATLSVTPGDSVSLSCRASQSISNHLHWYQQKSHESPRLLIKYASQSISGIPSRFSGSGSGTDFTLSINSVETEDFGMYFCQQSNSWPHTFGGGTKLEIKRA
- metastatic activity of human melanoma cells (human melanoma cells): inhibited metastatic activity of human melanoma cells in a mouse model

Source: patent US7271245B2, “Methods and compositions for inhibition of metastasis” (The Scripps Research Institute, priority 2004, dated 2007)
